In patent publication US20220125891:

Test system: T1, FLAG-tagged Regnase-1 AA mutant (S435A/S439A) from Regnase-1-deficient MEFs
T1 sequence: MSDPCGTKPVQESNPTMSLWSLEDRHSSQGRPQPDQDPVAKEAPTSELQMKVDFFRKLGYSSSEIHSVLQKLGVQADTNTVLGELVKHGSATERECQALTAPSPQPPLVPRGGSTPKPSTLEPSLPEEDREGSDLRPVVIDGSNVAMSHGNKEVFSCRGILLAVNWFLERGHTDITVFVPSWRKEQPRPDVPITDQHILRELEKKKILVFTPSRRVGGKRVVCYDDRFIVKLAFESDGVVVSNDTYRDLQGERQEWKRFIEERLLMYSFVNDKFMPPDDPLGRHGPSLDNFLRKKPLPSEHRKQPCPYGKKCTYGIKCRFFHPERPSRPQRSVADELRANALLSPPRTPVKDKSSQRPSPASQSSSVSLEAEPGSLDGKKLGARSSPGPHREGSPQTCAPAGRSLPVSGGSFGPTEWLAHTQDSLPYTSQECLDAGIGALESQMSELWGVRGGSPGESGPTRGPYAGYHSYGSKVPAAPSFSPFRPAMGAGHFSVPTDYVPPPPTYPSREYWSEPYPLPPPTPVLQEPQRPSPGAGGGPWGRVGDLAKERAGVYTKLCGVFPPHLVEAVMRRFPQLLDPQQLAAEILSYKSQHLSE

Substance | in vitro phosphorylation (mobility shift by immunoblotting, 32P autoradiography)
GST-tagged IKKi (Thermo Fisher Scientific) | Phosphorylation of recombinant Regnase-1 by recombinant TBK1 and/or IKKi under in vitro conditions was detected
GST-tagged TBK1 (Sigma) | Phosphorylation of recombinant Regnase-1 by recombinant TBK1 and/or IKKi under in vitro conditions was detected
